Common to all, as to experiment: direct ELISA, biotinylated recombinant protein on streptavidin plates
On the technique in general: In an ELISA, binding on a coated surface is turned into a signal by an enzyme label.

In one assay the target is T1, human recombinant IL-2Rβ (human, UniProt P14784 27-239, limits assumed).
T1 construct: Biotinylated and captured on streptavidin plates in the ELISA; also called IL-2Rb; IL2Rb
T1 sequence (looked up): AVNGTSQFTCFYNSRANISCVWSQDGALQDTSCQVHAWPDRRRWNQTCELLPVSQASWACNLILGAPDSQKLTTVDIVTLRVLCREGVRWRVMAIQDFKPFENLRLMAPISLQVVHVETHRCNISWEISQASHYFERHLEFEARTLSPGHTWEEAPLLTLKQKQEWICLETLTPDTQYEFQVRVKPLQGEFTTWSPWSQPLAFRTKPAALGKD

The target in a further assay is T2, human recombinant HER2 (human, UniProt P04626 23-652).
T2 construct: Biotinylated and captured on streptavidin plates in the ELISA; also called human epidermal growth factor receptor 2

Assay [1] addresses T3, recombinant Human carcinoembryonic antigen (human, UniProt P06731 35-685, limits assumed).
T3 construct: Irrelevant control protein of the ELISA, biotinylated and captured on streptavidin plates; also called irrelevant protein; CEA
T3 sequence (looked up): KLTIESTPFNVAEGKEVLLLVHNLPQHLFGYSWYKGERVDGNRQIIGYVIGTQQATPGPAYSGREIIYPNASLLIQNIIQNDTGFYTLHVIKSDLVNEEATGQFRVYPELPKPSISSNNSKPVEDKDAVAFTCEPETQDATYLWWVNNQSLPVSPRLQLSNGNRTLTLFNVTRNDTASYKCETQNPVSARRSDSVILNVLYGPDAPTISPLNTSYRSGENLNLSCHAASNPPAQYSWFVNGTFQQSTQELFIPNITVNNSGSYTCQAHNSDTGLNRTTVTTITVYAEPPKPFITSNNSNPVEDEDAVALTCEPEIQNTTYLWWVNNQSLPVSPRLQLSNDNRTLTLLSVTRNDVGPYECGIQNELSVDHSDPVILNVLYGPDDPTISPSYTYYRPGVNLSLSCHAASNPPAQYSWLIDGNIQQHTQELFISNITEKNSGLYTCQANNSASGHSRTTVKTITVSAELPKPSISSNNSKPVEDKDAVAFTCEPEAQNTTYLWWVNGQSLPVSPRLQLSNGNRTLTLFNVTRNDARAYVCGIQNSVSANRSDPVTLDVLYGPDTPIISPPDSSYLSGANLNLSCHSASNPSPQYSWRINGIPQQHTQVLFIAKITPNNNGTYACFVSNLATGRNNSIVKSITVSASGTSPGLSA

In another assay the target is T4, human recombinant IL-2Rγ (human, UniProt P31785 23-262, limits assumed).
T4 construct: Biotinylated and captured on streptavidin plates in the ELISA; also called IL-2Rg; IL2Rg
T4 sequence (looked up): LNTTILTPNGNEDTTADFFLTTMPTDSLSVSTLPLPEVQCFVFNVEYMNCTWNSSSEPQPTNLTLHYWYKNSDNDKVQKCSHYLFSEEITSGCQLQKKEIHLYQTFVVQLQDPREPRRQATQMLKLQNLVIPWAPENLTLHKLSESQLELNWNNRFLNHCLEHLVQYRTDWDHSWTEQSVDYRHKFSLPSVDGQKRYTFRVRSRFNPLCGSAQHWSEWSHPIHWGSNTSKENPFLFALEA

B1: AL4O30 (bispecific antibody, human IgG1, kappa, lambda, L234A L235A)
heavy: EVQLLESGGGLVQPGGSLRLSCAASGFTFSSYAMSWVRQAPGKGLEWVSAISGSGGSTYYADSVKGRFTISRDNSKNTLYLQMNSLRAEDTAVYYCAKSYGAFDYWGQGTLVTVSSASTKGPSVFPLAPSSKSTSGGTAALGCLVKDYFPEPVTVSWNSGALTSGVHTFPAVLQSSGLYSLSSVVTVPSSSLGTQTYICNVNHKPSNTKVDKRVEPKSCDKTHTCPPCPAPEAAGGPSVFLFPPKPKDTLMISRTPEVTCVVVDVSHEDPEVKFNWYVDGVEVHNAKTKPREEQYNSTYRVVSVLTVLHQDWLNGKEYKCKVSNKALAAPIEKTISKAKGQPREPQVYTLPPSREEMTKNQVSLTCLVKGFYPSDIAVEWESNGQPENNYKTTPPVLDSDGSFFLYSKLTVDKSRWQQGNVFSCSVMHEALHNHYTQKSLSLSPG
light 1: DIQMTQSPSSLSASVGDRVTITCRASQSIDEYLNWYQQKPGKAPKLLIYEASKLQSGVPSRFSGSGSGTDFTLTISSLQPEDFATYYCQQDGAMDTYATFGQGTKVEIKRTVAAPSVFIFPPSDEQLKSGTASVVCLLNNFYPREAKVQWKVDNALQSGNSQESVTEQDSKDSTYSLSSTLTLSKADYEKHKVYACEVTHQGLSSPVTKSFNRGEC
light 2: not shown
notes: κλ-body: common heavy chain, kappa anti-IL2Rβ light chain (AL4), lambda anti-MSLN light chain (O30); also called AL4O30/N
As for B1, the binding result with human recombinant IL-2Rβ is “binds”.

B2: AL4O41 (bispecific antibody, human IgG1, kappa, lambda, L234A L235A)
heavy: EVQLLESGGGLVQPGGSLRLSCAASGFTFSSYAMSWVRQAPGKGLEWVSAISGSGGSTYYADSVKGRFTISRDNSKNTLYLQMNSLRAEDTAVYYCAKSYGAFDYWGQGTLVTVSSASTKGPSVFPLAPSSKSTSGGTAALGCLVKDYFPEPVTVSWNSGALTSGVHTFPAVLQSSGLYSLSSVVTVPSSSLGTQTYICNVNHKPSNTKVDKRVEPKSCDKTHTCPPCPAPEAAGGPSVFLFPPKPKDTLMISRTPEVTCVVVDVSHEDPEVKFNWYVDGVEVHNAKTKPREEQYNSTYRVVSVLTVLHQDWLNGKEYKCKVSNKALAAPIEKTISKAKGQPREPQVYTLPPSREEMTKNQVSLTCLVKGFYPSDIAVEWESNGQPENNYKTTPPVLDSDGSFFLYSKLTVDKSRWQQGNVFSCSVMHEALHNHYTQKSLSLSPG
light 1: B1 light 1
light 2: SYVLTQPPSVSVAPGKTARITCGGNKIGHRAVHWYQQKPGQAPVLVIYYTYERPSGIPERFSGSNSGNTATLTISRVEAGDEADYYCQVWDWYSEGGVVFGGGTKLTVLGQPKAAPSVTLFPPSSEELQANKATLVCLISDFYPGAVTVAWKADSSPVKAGVETTTPSKQSNNKYAASSYLSLTPEQWKSHRSYSCQVTHEGSTVEKTVAPTECS
notes: κλ-body: common heavy chain, kappa anti-IL2Rβ light chain (AL4), lambda anti-MSLN light chain (O41); also called AL4O41/N
B2: in the assay with human recombinant IL-2Rβ, the binding result is recorded as “binds”.

B3: AL4O35 (bispecific antibody, human IgG1, kappa, lambda, L234A L235A)
heavy: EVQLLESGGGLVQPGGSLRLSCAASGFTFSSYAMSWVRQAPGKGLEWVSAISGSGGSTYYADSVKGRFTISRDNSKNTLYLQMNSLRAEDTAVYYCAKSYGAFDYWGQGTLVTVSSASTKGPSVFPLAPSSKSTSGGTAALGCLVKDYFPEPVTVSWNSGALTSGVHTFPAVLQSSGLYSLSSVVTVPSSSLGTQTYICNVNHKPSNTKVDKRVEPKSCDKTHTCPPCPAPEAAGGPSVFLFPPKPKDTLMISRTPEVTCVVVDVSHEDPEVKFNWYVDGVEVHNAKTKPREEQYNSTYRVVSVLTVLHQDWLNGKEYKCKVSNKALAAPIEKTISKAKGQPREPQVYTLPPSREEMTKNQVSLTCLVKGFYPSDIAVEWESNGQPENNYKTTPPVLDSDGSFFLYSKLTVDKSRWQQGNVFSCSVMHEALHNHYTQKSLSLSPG
light 1: B1 light 1
light 2: QPVLTQPVSLSASPGASVSLTCTLRSDIRVRDYRIFWYQQKPGSPPQYLLRYKTDSDKQQGSGVPSRFSGSKDASANAGILLISGLQSEDEADYYCMIWHRTTGTSLVFGGGTKLTVLGQPKAAPSVTLFPPSSEELQANKATLVCLISDFYPGAVTVAWKADSSPVKAGVETTTPSKQSNNKYAASSYLSLTPEQWKSHRSYSCQVTHEGSTVEKTVAPTECS
notes: κλ-body: common heavy chain, kappa anti-IL2Rβ light chain (AL4), lambda anti-MSLN light chain (O35); also called AL4O35/N
With B3, the binding result with human recombinant IL-2Rβ is “binds”.

B4: AL4O38 (bispecific antibody, human IgG1, kappa, lambda, L234A L235A)
heavy: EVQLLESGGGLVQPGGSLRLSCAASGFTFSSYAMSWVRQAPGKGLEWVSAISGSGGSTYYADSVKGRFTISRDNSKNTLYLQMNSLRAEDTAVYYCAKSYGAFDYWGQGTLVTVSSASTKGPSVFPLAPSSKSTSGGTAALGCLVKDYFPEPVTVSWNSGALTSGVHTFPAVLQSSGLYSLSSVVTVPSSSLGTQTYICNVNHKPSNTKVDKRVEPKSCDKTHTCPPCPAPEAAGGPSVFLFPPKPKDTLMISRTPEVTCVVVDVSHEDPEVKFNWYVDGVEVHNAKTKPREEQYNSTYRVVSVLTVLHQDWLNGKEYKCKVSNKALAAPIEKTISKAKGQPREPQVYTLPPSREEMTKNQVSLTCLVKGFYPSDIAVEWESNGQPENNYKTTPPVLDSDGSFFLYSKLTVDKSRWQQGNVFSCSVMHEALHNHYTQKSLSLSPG
light 1: B1 light 1
light 2: QPVLTQPASLSASPGASASLTCTLRSGINVRDYRIFWYQQKPGSPPQYLLRYKSASDKQQGSGVPSRFSGSKDASANAGILLISGLQSEDEADYYCMIWHHDSEGHAFVFGGGTKLTVLGQPKAAPSVTLFPPSSEELQANKATLVCLISDFYPGAVTVAWKADSSPVKAGVETTTPSKQSNNKYAASSYLSLTPEQWKSHRSYSCQVTHEGSTVEKTVAPTECS
notes: κλ-body: common heavy chain, kappa anti-IL2Rβ light chain (AL4), lambda anti-MSLN light chain (O38); also called AL4O38/N
On to B4, for which, in the assay with human recombinant IL-2Rβ, the binding result is listed as “binds”.

B5: AL1N2-28 (bispecific antibody, human IgG1, kappa, lambda, L234A L235A)
heavy: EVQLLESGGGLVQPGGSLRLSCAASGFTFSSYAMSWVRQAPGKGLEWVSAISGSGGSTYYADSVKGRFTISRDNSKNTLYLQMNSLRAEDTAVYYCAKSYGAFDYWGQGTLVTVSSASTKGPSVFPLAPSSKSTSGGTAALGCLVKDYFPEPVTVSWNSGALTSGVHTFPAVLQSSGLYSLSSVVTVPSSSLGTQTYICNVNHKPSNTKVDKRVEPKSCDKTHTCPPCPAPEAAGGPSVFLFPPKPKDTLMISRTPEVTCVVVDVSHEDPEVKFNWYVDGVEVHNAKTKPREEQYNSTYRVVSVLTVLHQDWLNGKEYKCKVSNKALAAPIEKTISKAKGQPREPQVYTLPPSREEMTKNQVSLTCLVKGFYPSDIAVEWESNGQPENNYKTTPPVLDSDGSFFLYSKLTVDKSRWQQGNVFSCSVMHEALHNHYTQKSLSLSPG
light 1: not shown
light 2: SYVLTQPPSVSVAPGKTARITCGGNTIGSTVVHWYQQKPGQAPVLVIYFDDARPSGIPERFSGSNSGNTATLTISRVEAGDEADYYCQVWDSFGLSLAPVFGGGTKLTVLGQPKAAPSVTLFPPSSEELQANKATLVCLISDFYPGAVTVAWKADSSPVKAGVETTTPSKQSNNKYAASSYLSLTPEQWKSHRSYSCQVTHEGSTVEKTVAPTECS
notes: κλ-body: common heavy chain, kappa anti-IL2Rβ light chain (AL1), lambda anti-HER2 light chain (N2-28); also called AL1N2-28/N
Regarding B5, the binding result with human recombinant HER2 and in the assay with human recombinant IL-2Rβ was “binds” throughout.

B6: AL5N2-28 (bispecific antibody, human IgG1, kappa, lambda, L234A L235A)
heavy: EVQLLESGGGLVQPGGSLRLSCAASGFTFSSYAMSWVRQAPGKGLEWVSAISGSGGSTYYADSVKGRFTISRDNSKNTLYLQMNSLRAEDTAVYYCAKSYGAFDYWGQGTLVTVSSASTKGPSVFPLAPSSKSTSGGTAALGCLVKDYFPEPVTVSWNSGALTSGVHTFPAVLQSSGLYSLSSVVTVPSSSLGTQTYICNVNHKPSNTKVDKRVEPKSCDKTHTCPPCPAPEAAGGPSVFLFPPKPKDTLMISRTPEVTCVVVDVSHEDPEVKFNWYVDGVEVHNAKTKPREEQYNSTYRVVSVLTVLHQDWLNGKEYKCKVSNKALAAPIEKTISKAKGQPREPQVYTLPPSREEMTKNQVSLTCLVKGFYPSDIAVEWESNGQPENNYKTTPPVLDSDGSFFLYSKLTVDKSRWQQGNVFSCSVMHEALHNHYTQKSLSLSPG
light 1: not shown
light 2: B5 light 2
notes: κλ-body: common heavy chain, kappa anti-IL2Rβ light chain (AL5), lambda anti-HER2 light chain (N2-28); also called AL5N2-28/N
Turning to B6, the binding result with human recombinant HER2 and with human recombinant IL-2Rβ was “binds” each time.

B7: AL2N2-28 (bispecific antibody, human IgG1, kappa, lambda, L234A L235A)
heavy: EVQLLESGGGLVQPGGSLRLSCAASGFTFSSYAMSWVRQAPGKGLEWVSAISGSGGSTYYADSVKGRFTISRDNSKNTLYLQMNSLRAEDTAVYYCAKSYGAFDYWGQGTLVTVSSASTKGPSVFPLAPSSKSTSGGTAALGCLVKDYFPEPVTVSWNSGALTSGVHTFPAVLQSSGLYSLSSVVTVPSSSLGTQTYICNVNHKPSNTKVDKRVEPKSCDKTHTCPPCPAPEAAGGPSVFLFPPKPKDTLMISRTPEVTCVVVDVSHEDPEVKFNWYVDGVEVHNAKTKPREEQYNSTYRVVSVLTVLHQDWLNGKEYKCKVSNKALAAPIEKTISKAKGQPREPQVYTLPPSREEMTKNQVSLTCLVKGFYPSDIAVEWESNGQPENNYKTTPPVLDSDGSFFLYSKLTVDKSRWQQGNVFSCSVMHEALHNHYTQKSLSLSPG
light 1: not shown
light 2: B5 light 2
notes: κλ-body: common heavy chain, kappa anti-IL2Rβ light chain (AL2), lambda anti-HER2 light chain (N2-28); also called AL2N2-28/N
As for B7, the binding result with human recombinant HER2 and with human recombinant IL-2Rβ was “binds” each time.

B8: AL4N2-28 (bispecific antibody, human IgG1, kappa, lambda, L234A L235A)
heavy: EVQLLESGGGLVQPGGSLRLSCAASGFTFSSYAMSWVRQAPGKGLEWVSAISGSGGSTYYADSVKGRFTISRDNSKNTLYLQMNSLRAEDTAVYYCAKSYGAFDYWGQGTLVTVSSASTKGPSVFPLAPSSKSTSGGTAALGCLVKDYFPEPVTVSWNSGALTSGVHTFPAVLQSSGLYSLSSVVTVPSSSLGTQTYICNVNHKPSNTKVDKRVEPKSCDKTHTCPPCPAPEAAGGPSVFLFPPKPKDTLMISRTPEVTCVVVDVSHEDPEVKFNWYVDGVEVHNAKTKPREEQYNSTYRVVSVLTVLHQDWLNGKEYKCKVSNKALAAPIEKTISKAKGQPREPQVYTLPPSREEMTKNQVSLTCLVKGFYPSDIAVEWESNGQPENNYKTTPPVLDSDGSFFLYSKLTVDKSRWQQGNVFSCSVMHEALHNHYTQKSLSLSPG
light 1: B1 light 1
light 2: B5 light 2
notes: κλ-body: common heavy chain, kappa anti-IL2Rβ light chain (AL4), lambda anti-HER2 light chain (N2-28); also called AL4N2-28/N
With B8, the binding result with human recombinant HER2 and with human recombinant IL-2Rβ was “binds” in each case.

B9: AL3N2-28 (bispecific antibody, human IgG1, kappa, lambda, L234A L235A)
heavy: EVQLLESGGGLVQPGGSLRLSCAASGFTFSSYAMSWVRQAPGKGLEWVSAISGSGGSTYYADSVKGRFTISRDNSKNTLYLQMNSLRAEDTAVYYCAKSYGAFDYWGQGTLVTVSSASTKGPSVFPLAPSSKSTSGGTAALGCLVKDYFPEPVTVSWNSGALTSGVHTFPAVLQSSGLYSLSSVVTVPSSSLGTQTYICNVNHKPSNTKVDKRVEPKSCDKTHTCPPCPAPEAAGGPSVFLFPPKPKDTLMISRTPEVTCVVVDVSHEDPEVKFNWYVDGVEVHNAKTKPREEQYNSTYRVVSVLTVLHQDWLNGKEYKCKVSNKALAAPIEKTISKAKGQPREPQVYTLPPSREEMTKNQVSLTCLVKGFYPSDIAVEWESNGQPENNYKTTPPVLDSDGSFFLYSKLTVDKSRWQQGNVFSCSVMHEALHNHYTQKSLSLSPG
light 1: not shown
light 2: B5 light 2
notes: κλ-body: common heavy chain, kappa anti-IL2Rβ light chain (AL3), lambda anti-HER2 light chain (N2-28); also called AL3N2-28/N
For the molecule B9, the binding result in the assay with human recombinant HER2 and with human recombinant IL-2Rβ was “binds” in each case.

B10: P1A3×P2C4 (bispecific antibody, V domains shown)
VH 1: QVQLQQWGAGLLKPSETLSLTCAVYGGSFSGYYWSWIRQPPGKGLEWIGEINHSGSTNYNPSLKSRATISVDTSKNQFSLKLSSVTAADTAVYYCATSPGGYSGGYFQHWGQGTLVTVSS
VL 1: not shown
VH 2: EVQLVQSGAEVKKPGSSVKVSCKASGYTFTNYYMHWVRQAPGQGLEWMGAIMPSRGGTSYPQKFQGRVTMTGDTSTSTVYMELSSLRSEDTAVYYCARGEYYYDSSGYYYWGQGTLVTVSS
VL 2: QSALTQPASVSGSPGQSIAISCTGTSSDIGHYDFVSWYQQHPGTAPKLIIYDINNRPSGISNRFSGSKSDNMASLTISGLQPEDEADYYCSAYTSSDTLVFGGGTKLT
notes: anti-IL-2Rβ (P2C4) in the knob arm; also called anti-IL-2Rβ×anti-IL-2Rγ bsAb; IL-2Rβ×IL-2Rγ KiH bsAb
Consider B10, for which the binding result was “no binding” in assay [1], “binds” in the assay with human recombinant IL-2Rγ and “binds” with human recombinant IL-2Rβ.

Source of the values: patent publication US20230295348A1 (NOVIMMUNE, published 2023).
